The values that follow come from US20170114420, “[…] WITH BINDING AFFINITY TO NOROVIRUS” (North Carolina State University, published 2017).

For series [1], the target named is T1, Norovirus GII.2 (Snow Mountain virus) VLP, capsid protein VP1 (Snow Mountain virus (Norovirus GII.2), UniProt Q80RD6 Q80RD6:1-542). Put plainly: ELONA; ELASA, RT, 3 ug/ml VLP; T/N 4.1 at 1 uM (Table 5). The conditions noted are these: chain copies: 180, label: 5' biotin.
The target of series [2] is T1, Norovirus GII.2 (Snow Mountain virus) …. Put plainly: ELONA; ELASA, RT, 3 ug/ml VLP; T/N 18.1 at 1 uM (Table 5). The following applies: chain copies: 180, label: 5' biotin.
Series [3] shares this target. Put plainly: ELONA; ELASA, RT, 3 ug/ml VLP; T/N 12.9 at 1 uM (Table 5). The conditions noted are these: chain copies: 180, label: 5' biotin.
The target in series [4] is Norovirus GI.1 (Norwalk) VLP, capsid protein VP1 (Norwalk virus (Norovirus GI.1), UniProt Q83884 Q83884:1-530). Put plainly: ELONA; 1 uM aptamer, RT; <2 is negative. The following applies: label: 5' biotin.
For series [5], the target named is T1, Norovirus GII.2 (Snow Mountain virus) …. Description: ELONA. The following applies: chain copies: 180.
Series [6] shares this target. Put plainly: ELONA; ELASA, RT, 3 ug/ml VLP; T/N 12.4 at 1 uM (Table 5). The following applies: chain copies: 180, label: 5' biotin.

B1: SMV-26 (ssDNA)
DNA: AGTATACGTATTACCTGCAGCTGACCGAGTGTCTGGTCATTTTCGATGTCTGTTGTTAGGCCGATATCTCGGAGATCTTGC
B1: the Kd (commonly the equilibrium constant for the complex coming apart) in series [1] was about 281 nM.

B2: SMV-21 (ssDNA)
DNA: AGTATACGTATTACCTGCAGCCCATGTTTTGTAGGTGTAATAGGTCATGTTAGGGTTTCTGCGATATCTCGGAGATCTTGC
B2: the Kd in series [2] was about 101 nM.

B3: SMV-19 (ssDNA)
DNA: AGTATACGTATTACCTGCAGCCACCAGTGTGTTGAGGTTTGAGCACACTGATAGAGTGTCACGATATCTCGGAGATCTTGC
In series [3], B3 yielded a Kd of about 191 nM. For the same molecule, the binding result in series [4] was “binds”.

B4: M6-2 (ssDNA)
DNA: AGTATACGTATTACCTGCAGCTGGGAAGAGGTCCGGTAAATGCAGGGTCAGCCCGGAGAGCGATATCTCGGAGATCTTGC
As for B4, the binding signal in series [5] was determined as 12 VLP/no VLP ratio.

B5: SMV-25 (ssDNA)
DNA: AGTATACGTATTACCTGCAGCCATCTGTGTGAAGACTATATGGCGCTCACATATTTCTTTCCGATATCTCGGAGATCTTGC
In series [6], B5 had an equilibrium dissociation constant (Kd) of about 232 nM.

B6: M1 (ssDNA)
DNA: AGTATACGTATTACCTGCAGCTGTTTATGGGGATAAACGTATCTAATTCGTGTACTAATCACGATATCTCGGAGATCTTGC
The molecule B6 gave a binding signal in series [5] of 10.7 VLP/no VLP ratio.
